This is an account of results in US20050221426A1.

What all share (test): cell-based or functional assay
Assay [1] concerns the target GLP1R (UniProt P43220).
Assay [2] concerns the target Vasoactive Intestinal Peptide 1 receptor (UniProt P32241).
Assay [3] concerns the target Melanocortin 5 receptor (UniProt P33032).
Assay [4] has as its target Melanocortin 1 receptor (UniProt Q01726).
Assay [5] has as its target CRHR1 (UniProt P34998).

Sequence of Melanocortin 1 receptor (Q01726 whole entry): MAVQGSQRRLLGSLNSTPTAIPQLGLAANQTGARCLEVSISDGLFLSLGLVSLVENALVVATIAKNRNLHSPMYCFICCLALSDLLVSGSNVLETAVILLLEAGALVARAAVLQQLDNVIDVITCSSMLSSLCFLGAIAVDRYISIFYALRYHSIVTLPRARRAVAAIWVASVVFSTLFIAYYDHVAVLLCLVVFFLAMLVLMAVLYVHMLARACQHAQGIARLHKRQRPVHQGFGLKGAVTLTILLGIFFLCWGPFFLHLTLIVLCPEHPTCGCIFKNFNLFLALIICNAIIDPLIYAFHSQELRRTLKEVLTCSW
Sequence of CRHR1 (P34998 24-415 limits assumed): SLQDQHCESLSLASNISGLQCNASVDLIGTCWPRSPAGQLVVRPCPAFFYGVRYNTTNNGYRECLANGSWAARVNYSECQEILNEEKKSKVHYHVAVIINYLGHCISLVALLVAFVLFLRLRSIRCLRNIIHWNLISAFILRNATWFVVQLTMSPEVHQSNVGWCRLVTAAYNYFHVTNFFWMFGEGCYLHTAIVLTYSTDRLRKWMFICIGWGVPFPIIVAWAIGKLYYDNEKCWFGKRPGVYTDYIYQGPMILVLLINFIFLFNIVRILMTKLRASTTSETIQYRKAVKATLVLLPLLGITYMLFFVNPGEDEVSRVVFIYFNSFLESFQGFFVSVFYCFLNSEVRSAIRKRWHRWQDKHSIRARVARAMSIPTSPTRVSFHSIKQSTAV
Sequence of Melanocortin 5 receptor (P33032 whole entry): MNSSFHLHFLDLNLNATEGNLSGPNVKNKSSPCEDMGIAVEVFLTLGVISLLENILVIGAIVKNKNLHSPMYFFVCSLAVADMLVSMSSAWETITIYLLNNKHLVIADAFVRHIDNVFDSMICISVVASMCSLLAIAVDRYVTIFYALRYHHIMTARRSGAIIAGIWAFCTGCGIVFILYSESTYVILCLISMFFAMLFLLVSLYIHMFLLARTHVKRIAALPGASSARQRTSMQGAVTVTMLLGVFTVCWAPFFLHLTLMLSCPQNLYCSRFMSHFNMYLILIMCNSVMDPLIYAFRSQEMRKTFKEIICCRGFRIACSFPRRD
Sequence of Vasoactive Intestinal Peptide 1 receptor (P32241 31-457): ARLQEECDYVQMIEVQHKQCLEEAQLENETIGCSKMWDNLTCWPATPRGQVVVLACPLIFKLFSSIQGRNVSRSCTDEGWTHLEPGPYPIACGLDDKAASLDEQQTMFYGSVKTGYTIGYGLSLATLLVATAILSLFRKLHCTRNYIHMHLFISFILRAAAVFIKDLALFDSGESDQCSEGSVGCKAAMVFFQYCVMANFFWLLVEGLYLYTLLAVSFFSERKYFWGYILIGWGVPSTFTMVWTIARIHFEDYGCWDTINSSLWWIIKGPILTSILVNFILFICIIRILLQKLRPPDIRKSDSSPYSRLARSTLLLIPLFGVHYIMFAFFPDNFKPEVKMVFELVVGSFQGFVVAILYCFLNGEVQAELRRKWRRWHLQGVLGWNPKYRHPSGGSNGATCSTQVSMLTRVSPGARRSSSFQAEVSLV
Sequence of GLP1R (P43220 24-463 limits assumed): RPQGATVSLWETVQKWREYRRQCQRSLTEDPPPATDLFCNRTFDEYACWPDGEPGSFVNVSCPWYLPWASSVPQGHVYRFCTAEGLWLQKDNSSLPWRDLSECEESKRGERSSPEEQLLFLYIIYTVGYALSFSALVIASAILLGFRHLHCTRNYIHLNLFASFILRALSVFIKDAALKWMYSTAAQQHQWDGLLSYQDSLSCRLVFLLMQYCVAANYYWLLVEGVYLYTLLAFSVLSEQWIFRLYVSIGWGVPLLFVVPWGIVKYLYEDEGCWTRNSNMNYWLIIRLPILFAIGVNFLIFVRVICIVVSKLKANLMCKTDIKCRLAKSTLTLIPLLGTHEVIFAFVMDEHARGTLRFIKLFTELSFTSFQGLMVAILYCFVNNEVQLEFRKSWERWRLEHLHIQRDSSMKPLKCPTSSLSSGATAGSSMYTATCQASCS

As for GLP (peptide), the EC50 of cell response (CNG channel voltage dye assay; NY & H30602) in assay [1] stood at 0.003 nM.

In assay [2], “VIP (from UniProt P01282 125-152) (peptide)” gave an EC50 of cell response (CNG channel voltage dye assay; MDC dye) of 0.0024 nM, an EC50 of cell response (CNG channel voltage dye assay; TB & H30602) of 0.005 nM, an Fmax/Fb maximal response (CNG channel voltage dye assay; MDC dye) of 4.9 and an Fmax/Fb maximal response (CNG channel voltage dye assay; TB & H30602) of 5.

As to “[Nle4-D-Phe7]α-MSH (from UniProt P01189 138-150) (peptide)”, in assay [3], the EC50 of cell response (CNG channel voltage dye assay; MDC dye) stood at 0.0029 nM, the EC50 of cell response (CNG channel voltage dye assay; NR & H30602) was determined as 0.0013 nM, the EC50 of cell response (CNG channel voltage dye assay; NY & H30602) amounted to 950 nM and the Fmax/Fb maximal response (CNG channel voltage dye assay; MDC dye) was 3.6. Also, in assay [3], the Fmax/Fb maximal response (CNG channel voltage dye assay; NR & H30602) stood at 3.2 and the Fmax/Fb maximal response (CNG channel voltage dye assay; NY & H30602) was 3.4.

In assay [4], “α-MSH (from UniProt P01189 138-150) (peptide)” came in with an EC50 of cell response (CNG channel voltage dye assay; MDC dye) of 820 nM, an EC50 of cell response (CNG channel voltage dye assay; TB & H30602) of 770 nM, an Fmax/Fb maximal response (CNG channel voltage dye assay; MDC dye) of 5 and an Fmax/Fb maximal response (CNG channel voltage dye assay; TB & H30602) of 5.1.

In assay [5], SEEPPISLDLTFHLLREVLEMARAEQLAQQAHSNRKLMEII (peptide, UniProt P06850 154-194, looked up) [CRF] displayed an EC50 of cell response (CNG channel voltage dye assay; MDC dye) of 0.028 nM, an EC50 of cell response (CNG channel voltage dye assay; NY & H30602) of 0.028 nM, an Fmax/Fb maximal response (CNG channel voltage dye assay; MDC dye) of 4.2 and an Fmax/Fb maximal response (CNG channel voltage dye assay; NY & H30602) of 4.3.
